Values of other authors in patent US20190262496A1, “Compositions and Methods for Collagen-Based Sutures and Antibacterial Coatings” (UNIVERSITY HOSPITALS CLEVELAND MEDICAL CENTER, priority 2016, published 2019).

Conditions: in vivo

With “PDGF-BB: platelet derived growth factor-BB” as the substance, how does the “half-life of the growth factor” value read?
The value was “a few minutes”.
